# Reference: paper PMC11032457 (Proceedings of the National Academy of Sciences of the …, 2024)
# T1: TK1094 protein (Thermococcus kodakarensis, UniProt Q5JE21)
# T1 sequence (Q5JE21 1-399): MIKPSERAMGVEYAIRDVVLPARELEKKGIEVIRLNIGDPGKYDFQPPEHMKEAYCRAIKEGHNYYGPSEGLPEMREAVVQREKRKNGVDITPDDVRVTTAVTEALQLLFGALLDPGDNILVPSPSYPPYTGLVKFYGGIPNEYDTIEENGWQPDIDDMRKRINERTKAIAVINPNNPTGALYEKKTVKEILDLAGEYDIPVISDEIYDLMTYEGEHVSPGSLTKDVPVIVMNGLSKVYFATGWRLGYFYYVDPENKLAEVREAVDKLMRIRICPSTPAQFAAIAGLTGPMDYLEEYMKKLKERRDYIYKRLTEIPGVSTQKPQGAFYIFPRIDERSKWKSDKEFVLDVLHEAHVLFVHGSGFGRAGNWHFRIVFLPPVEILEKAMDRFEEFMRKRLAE
# T2: TK0186 protein (Thermococcus kodakarensis, UniProt Q5JFM8)
# T2 sequence (Q5JFM8 1-417): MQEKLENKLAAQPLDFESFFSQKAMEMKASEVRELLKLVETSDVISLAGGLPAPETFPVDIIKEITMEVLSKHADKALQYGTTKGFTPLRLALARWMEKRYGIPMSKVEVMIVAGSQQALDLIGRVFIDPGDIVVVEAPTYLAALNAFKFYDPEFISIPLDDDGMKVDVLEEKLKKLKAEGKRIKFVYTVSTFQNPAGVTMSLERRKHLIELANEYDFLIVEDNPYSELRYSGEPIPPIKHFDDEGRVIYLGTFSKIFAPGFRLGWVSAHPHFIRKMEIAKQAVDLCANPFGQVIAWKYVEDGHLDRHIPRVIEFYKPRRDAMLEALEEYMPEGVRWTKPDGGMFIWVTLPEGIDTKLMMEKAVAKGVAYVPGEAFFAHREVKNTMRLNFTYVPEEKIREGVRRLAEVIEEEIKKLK
# B1: TK1734 protein (2-PG phosphatase) (Thermococcus kodakarensis KOD1) (protein)
# chain: MTRKIGIIFDMDGVIYRGSEPINGAKEVIEFLKERKIPFLFLTNNSTRDPAMYREKLLSMGIDVPEDVIVTSGLATRLYMEKHFEPGEVFVIGGKGLLREMERLGWGVVSLEDARKGAWKRIKHVVVGLDPELTYEKLKYGTLAIRNGASFIGTNPDTTYPAEEGLYPGAGAIIAALRASTDREPVIIGKPNEPAYEVVKDKLGDVEELWMVGDRLDTDIAFAKRFGMKAIMVLTGVSTLKDVAESGIKPNLVLPDVGELKRYLEAAL
# B2: TK2301 protein (Thermococcus kodakarensis KOD1) (protein)
# chain: MTIKAISVDIDGTITYPDRRLHEKALEAIRLAESLGVPVMLVTGNTVQFGEAAAILIGTSGPVVGEDGGALSIKEGKLRKRVYLTNMDEEWILWGELKKRYPEALLSFSMPERKAGLVVLRTVPVKAVRELIKELGLNLIAVDSGFAIHIKKPWINKGTGIEKACEYLGISPKEVAHIGDGENDLDAFGVVGYRVAVAQAPESLKEKADYVTTKPYGEGGAEAIEHILRKFGYLPEEKT
# B3: TK0683 protein (GLDH) (Thermococcus kodakarensis KOD1) (protein)
# chain: MRPKVFITRAIPENGIEMLKEHFEVEVWPEEREIPREVLLKKVRDVDALVTMLSERIDSEVFDAAPRLRIVANYAVGYDNIDVEEATRRGIYVTNTPDVLTDATADFAWTLLLATARRLIEADHFTRSGEWKRRGIAWHPRWFLGYDVYGKTIGIVGFGRIGQAVARRARGFGMRILYYSRSRKPEAEKELGAEFRSLEDLLRESDFVVLAVPLTKETQYMINEERLRLMKKTAILVNIARGKVVDTKALMKALKEGWIAGAGLDVYEEEPYYNEELFSLKNVVLAPHIGSATYGAREGMAELVARNLIAFKNGEVPPTLVNKEVVKVRKPGF
# B4: TK0551 protein (GLDH candidate) (Thermococcus kodakarensis KOD1) (protein)
# chain: MRPRVLVTFKMKSKPVEELKKYADVDFLLYPSVEELAEKIKDYDGLIVSPLNRVPREVIERAERLKVISCHSAGYDHVDVEAATKKGIYVTKVSGVLSEAVAEFAVGLTIALLRKFVYTDKLIRRGEWDSHAKIWSTFKDIETVYGKKVGILGMGAIGKAIARRMKAMGTEILYWSRSRKEDIEAEVGAKYLPLDEVLRESDIVILALPATPETYHIINEERIKLLEGKYLVNIGRGTLVDEKAVVKAIEEGRLKGYATDVFEKEPVTEHPLFKYEWETVLTPHHAGLSKEAMEDMGFQAVMNLLAVLRGEIPKDLVNREVVKVRPPEEVKML
# Experiments:
# [1] = biological target: T1, TK1094 protein; assay: glycine formation, HPLC; assay type: biochemical; conditions: amino donor; 10 mM glyoxylate; 20 μM PLP; 50 mM HEPES pH 7.5; 80 °C
# [2] = biological target: T2, TK0186 protein; assay: glycine formation, HPLC; assay type: biochemical; conditions: amino donor; 10 mM glyoxylate; 20 μM PLP; 50 mM HEPES pH 7.5; 80 °C
# [3] = substrate: O=C(O)COP(=O)(O)O; assay: purified protein; conditions: 80 °C
# [4] = substrate: O=C[C@H](O)[C@H](O)COP(=O)(O)O; assay: purified protein; conditions: 80 °C, 50 mM MES-NaOH pH 6.5, 10 mM MgCl2
# [5] = substrate: O=C(COP(=O)(O)O)[C@H](O)[C@H](O)COP(=O)(O)O; assay: purified protein; conditions: 80 °C, 50 mM MES-NaOH pH 6.5, 10 mM MgCl2
# [6] = substrate: O=C(CO)[C@H](O)[C@H](O)COP(=O)(O)O; assay: purified protein; conditions: 80 °C, 50 mM MES-NaOH pH 6.5, 10 mM MgCl2
# [7] = substrate: O=CC(=O)O; assay: purified protein; conditions: reduction, 0.3 mM NADH, 85 °C, 50 mM Tris pH 7.5
# [8] = substrate: O=C(O)CO; assay: purified protein; conditions: oxidation, 10 mM NAD+, 80 °C, 50 mM Tris pH 7.5
# [9] = substrate: O=C(O)C(=O)CO; assay: purified protein; conditions: reduction, 0.3 mM NADH, 85 °C, 50 mM Tris pH 7.5
# [10] = substrate: C[C@@H](O)C(=O)O; assay: purified protein; conditions: oxidation, 10 mM NAD+, 80 °C, 50 mM Tris pH 7.5
# [11] = substrate: CC(C)C(=O)C(=O)O; assay: purified protein; conditions: reduction, 0.3 mM NADH, 85 °C, 50 mM Tris pH 7.5
# [12] = substrate: CC[C@H](C)C(=O)C(=O)O; assay: purified protein; conditions: reduction, 0.3 mM NADH, 85 °C, 50 mM Tris pH 7.5
# [13] = substrate: CCCC(=O)C(=O)O; assay: purified protein; conditions: reduction, 0.3 mM NADH, 85 °C, 50 mM Tris pH 7.5
# [14] = substrate: CC(=O)C(=O)O; assay: purified protein; conditions: reduction, 0.3 mM NADH, 85 °C, 50 mM Tris pH 7.5
# [15] = 50 mM MES-NaOH pH 7.0, 10 mM MgCl2
# [16] = 50 mM MES-NaOH pH 6.5, 10 mM MgCl2
molecule,measurement,setting,value
C[C@H](N)C(=O)O [L-alanine],"glycine formation, HPLC",[1],"In the case of the TK1094 protein, activity was observed with L-alanine and L-glutamate"
same,"glycine formation, HPLC",[2],the most preferred amino donor was L-alanine (Fig. 3E)
B1,Km,[3]; [15],1750 ± 220 µM
same,kcat,[3]; [15],65.6 ± 2.5 s⁻¹
same,kcat/Km,[3]; [15],37500 M⁻¹ s⁻¹
B2,Km,[4],1250 ± 280 µM
same,kcat,[4],17.1 ± 1 s⁻¹
same,kcat/Km,[4],13700 M⁻¹ s⁻¹
same,Km,[3]; [16],1220 ± 90 µM
same,kcat,[3]; [16],21.2 ± 0.4 s⁻¹
same,kcat/Km,[3]; [16],17400 M⁻¹ s⁻¹
same,Km,[5],238 ± 44 µM
same,kcat,[5],30.1 ± 1.3 s⁻¹
same,kcat/Km,[5],126000 M⁻¹ s⁻¹
same,Km,[6],979 ± 157 µM
same,kcat,[6],16.3 ± 0.5 s⁻¹
same,kcat/Km,[6],16600 M⁻¹ s⁻¹
B3,Km,[7],1490 ± 800 µM
same,kcat,[7],2030 ± 92 s⁻¹
same,kcat/Km,[7],1.36e+06 M⁻¹ s⁻¹
same,Km,[8],440 ± 60 µM
same,kcat,[8],0.213 ± 0.005 s⁻¹
same,kcat/Km,[8],490 M⁻¹ s⁻¹
same,Km,[9],310 ± 70 µM
same,kcat,[9],3130 ± 462 s⁻¹
same,kcat/Km,[9],1e+07 M⁻¹ s⁻¹
same,Km,[10],440 ± 60 µM
same,kcat,[10],0.105 ± 0.003 s⁻¹
same,kcat/Km,[10],240 M⁻¹ s⁻¹
B4,Km,[11],1900 ± 440 µM
same,kcat,[11],15.9 ± 2.2 s⁻¹
same,kcat/Km,[11],8370 M⁻¹ s⁻¹
same,Km,[7],2870 ± 390 µM
same,kcat,[7],186 ± 2 s⁻¹
same,kcat/Km,[7],64800 M⁻¹ s⁻¹
same,Km,[12],1930 ± 250 µM
same,kcat,[12],18.3 ± 2.2 s⁻¹
same,kcat/Km,[12],9480 M⁻¹ s⁻¹
same,Km,[8],24100 ± 1260 µM
same,kcat,[8],0.376 ± 0.009 s⁻¹
same,kcat/Km,[8],15.6 M⁻¹ s⁻¹
same,Km,[13],1440 ± 90 µM
same,kcat,[13],14 ± 0.3 s⁻¹
same,kcat/Km,[13],9720 M⁻¹ s⁻¹
same,Km,[9],3730 ± 250 µM
same,kcat,[9],104 ± 3 s⁻¹
same,kcat/Km,[9],27900 M⁻¹ s⁻¹
same,Km,[10],9900 ± 1150 µM
same,kcat,[10],0.324 ± 0.013 s⁻¹
same,kcat/Km,[10],32.7 M⁻¹ s⁻¹
same,Km,[14],6890 ± 810 µM
same,kcat,[14],12.4 ± 0.6 s⁻¹
same,kcat/Km,[14],1780 M⁻¹ s⁻¹
